# Results published in patent publication US20230279131A1 (published 2023).
# B1: H4H13541P (antibody, human IgG4 S228P, kappa, V domains shown)
# VH: EVQLVESGGGVVRPGGSLRLSCAASGFIFDDYDMSWVRQPPGRGLEWVSGIDWFGGTRGYADSMKGRFTISRDNAKNSLYLQMNSLRVEDTAFYYCARGGAIVGAVTPFDYWGQGTLVTVSS
# VL: DIQMTQSPSSLSASVGNRVTLSCRASQSINTYLSWYQQRPGKAPKLLIYAASSLQSGVPSRFSGSGAGTDFTLTISSLQPEDFATYYCQQSYSAPLTFGGGTKVEIKR
# notes: anti-IL2Rγ human antibody, human IgG4 Fc; also called H4H13841P
# B2: H4H13538P (antibody, human IgG4 S228P, kappa, V domains shown)
# VH: EVQLVESGGGLVQPGGSLGLSCAASGFTFSNYAMSWVRQAPGKGLEWVSAVSGGGGGTYYADSVKGRFTISRDNSKNTVLLQMNSLRAEDTAVYYCARGRTGGLDYWGPGTLVTVSS
# VL: DVVMTQSPLSLPVIFGQPASISCRSSQSLVDSDGNTYLNWLQQRPGQSPRRLIYEVSNRDSGVPDRFSGSGSGTDFTLTISRVEAEDVGIYYCMQGTRWPPTFGGGTKVEIKR
# notes: anti-IL2Rγ human antibody, human IgG4 Fc
# B3: H4H12889P (antibody, human IgG4 S228P, kappa, V domains shown)
# VH: EVQLVESGGGLVQPGGSLRLSCAASGFIFSSYEMHWVRQAPGKGLEWISYISSSGTTIYYADSVKGRFTISRDNAKNSLYLHMNSLRAEDTAVYYCTRARITGTFDVFDIWGQGTMVTVSS
# VL: DIQMTQSPSSLSASVGDRVTITCRASQSISSYLNWYQQKPGKAPKLLIFAASNLQSGVPSRFSGSRSGTDFTLTISSLQPEDFATYYCQQNYNIPYTFGQGTKLEIKR
# notes: anti-IL2Rγ human antibody, human IgG4 Fc; also called REGN7257
# B4: H4H12926P2 (antibody, human IgG4 S228P, kappa, V domains shown)
# VH: QVQLQQSGPGLVKPSQTLSLTCAISGDSVSSNIAAWNWIRLSPSRGLEWLGRTFFRSTWFYDYSLSVKGRITINPDTSKNQFSLHLNSVTPEDAAVYYCARTGRRWSLDYWGQGTLVTVSS
# VL: not shown
# notes: anti-IL2Rγ mAb expressed with human IgG4 Fc
# B5: H4H12926P2 (antibody, human IgG4 S228P, kappa, V domains shown)
# VH: B4 VH
# VL: not shown
# notes: anti-IL2Rgamma monoclonal antibody expressed with human IgG4 Fc
# B6: H4H12859P (antibody, human IgG4 S228P, kappa, V domains shown)
# VH: QVQLVQSGAEVKKPGASVRVSCKASGYTFTDYDIHWVRQAPGHGLEWMGWINPNSGGTNYAQKFQGRVTMTRDTSISTVYMDLSRLRSDDTAVYYCARADYSSSYYYYGMDVWGQGTTVTVSS
# VL: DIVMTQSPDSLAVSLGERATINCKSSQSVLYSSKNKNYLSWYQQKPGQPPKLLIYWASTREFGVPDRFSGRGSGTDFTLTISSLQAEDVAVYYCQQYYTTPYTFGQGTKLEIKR
# notes: as for B2
# B7: H4H12927P2 (antibody, human IgG4 S228P, kappa, V domains shown)
# VH: EVQLVESGGGVVRPGGSLRLSCATSGFTFDDYGMSWVRQVPGKGLEWVSSVNRNGGTTDYADSVKGRFTISRDNAKRSLFLQMNSLRAEDTALYHCATGELFFDYWGQGTLVTVSS
# VL: not shown
# notes: as for B4
# B8: H4H12927P2 (antibody, human IgG4 S228P, kappa, V domains shown)
# VH: B7 VH
# VL: not shown
# notes: as for B5
# B9: H4H12874P (antibody, human IgG4 S228P, kappa, V domains shown)
# VH: QVQLVESGGGVVQPGRSLRLSCAASGFNFRNFGMHWVRQAPGKGLEWVAGILYDGSSKYYADSVKDRFTISRDNSKNTLFLQMNSLRAEDTAMYYCAKEEDTAMVPFDSWGPGTLVTVSS
# VL: DIQLTQSPSFLSASVGDRVTITCWASQGISSYLAWYQQKPGKAPTLLIYAASTLQSGVPSRFSGSGSGTEFTLTISSLQPEDFASYYCQQLKSYPLTFGGGTKVEIKR
# notes: as for B4
# Experiments:
# [1] = biological target: T1, human IL-2Rγ expressed on cells (human, UniProt P31785 23-369); assay: flow cytometry on NK-92 cells, antibody at 10 µg/ml; high end of the range, tied to 'H4H13841P' (taken as H4H13541P) by Table 9-2
# T1 construct: whole, on cells; endogenous receptor on human cells; also called IL-2Rgamma; CD132
# T1 sequence (looked up): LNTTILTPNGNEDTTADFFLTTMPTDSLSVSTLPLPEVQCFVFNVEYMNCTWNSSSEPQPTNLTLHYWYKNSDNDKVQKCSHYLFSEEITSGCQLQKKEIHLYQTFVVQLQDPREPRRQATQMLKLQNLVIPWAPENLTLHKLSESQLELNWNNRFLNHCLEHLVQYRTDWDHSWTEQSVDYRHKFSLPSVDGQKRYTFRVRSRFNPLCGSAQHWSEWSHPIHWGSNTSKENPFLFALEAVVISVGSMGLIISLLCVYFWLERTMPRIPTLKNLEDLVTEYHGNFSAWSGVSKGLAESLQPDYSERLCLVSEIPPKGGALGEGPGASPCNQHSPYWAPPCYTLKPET
# [2] = biological target: T1, human IL-2Rγ expressed on cells; assay: flow cytometry on NK-92 cells, antibody at 10 µg/ml; low end of the range, tied to H4H13538P by Table 9-2
# [3] = biological target: T1, human IL-2Rγ expressed on cells; assay: flow cytometry on NK-92 cells, antibody at 10 µg/ml; high end of the range, tied to H4H12889P by Table 9-1
# [4] = biological target: T1, human IL-2Rγ expressed on cells; assay: flow cytometry on Jurkat cells, antibody at 10 µg/ml; high end of the range, tied to H4H12889P by Table 9-1
# [5] = biological target: T2, D1 domain of human IL-2Rγ extracellular domain expressed with a C-terminal myc-myc-hexahistidine tag (human); assay: SPR Biacore 4000, mAb captured on anti-hFc, 25°C
# T2 construct: whole entry is the tagged construct
# T2 chain: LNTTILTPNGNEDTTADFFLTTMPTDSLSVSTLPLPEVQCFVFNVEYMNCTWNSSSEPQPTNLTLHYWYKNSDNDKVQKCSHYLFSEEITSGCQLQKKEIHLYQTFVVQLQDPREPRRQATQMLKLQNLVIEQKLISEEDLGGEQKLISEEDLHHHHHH
# Experimental: (§1) Equilibrium dissociation constants (KD values) for IL-2Rγ binding to purified anti-IL2Rγ monoclonal antibodies were determined using a Biacore 4000 instrument equipped with a real-time surface plasmon resonance biosensor. All binding studies were performed in 10 mM HEPES, 150 mM NaCl, 3 mM EDTA, and 0.05% v/v Surfactant Tween-20, pH 7.4 (HBS-ET) running buffer at 25° C. and 37° C. The Biacore sensor surface was first derivatized by amine coupling with a monoclonal mouse anti-human Fc antibody (GE, #BR-1008-39) to capture anti-IL2Rγ monoclonal antibodies.
# [6] = biological target: T2, D1 domain of human IL-2Rγ extracellular …; assay: SPR Biacore 4000, mAb captured on anti-hFc, 37°C
# Experimental: as §1
# [7] = biological target: T3, Human IL2Rγ extracellular domain expressed with a C-terminal myc-myc-hexahistidine tag (human); assay: SPR Biacore 4000, mAb captured by anti-hFc, HBS-ET, 25C
# T3 construct: also called hIL-2Rg-MMH; hIL-2RG-MMH
# T3 chain: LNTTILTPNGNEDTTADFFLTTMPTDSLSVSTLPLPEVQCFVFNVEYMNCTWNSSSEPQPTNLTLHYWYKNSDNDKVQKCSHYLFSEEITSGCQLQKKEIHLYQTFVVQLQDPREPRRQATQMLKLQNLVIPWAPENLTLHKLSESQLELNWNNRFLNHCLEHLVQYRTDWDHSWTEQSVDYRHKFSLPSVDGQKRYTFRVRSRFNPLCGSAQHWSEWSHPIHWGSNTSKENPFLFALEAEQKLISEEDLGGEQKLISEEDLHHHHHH
# Experimental: as §1
# [8] = biological target: T3, Human IL2Rγ extracellular domain …; assay: SPR Biacore 4000, mAb captured by anti-hFc, HBS-ET, 37C
# Experimental: as §1
# [9] = biological target: T1, human IL-2Rγ expressed on cells; assay: flow cytometry on NK-92 cells, antibody at 10 µg/ml; low end of the range, tied to H4H12859P by Table 9-1
# [10] = biological target: T4, D2 domain of human IL2Rγ extracellular domain expressed with a C-terminal myc-myc-hexahistidine tag (human); assay: SPR Biacore 4000, mAb captured on anti-hFc, 25°C
# T4 construct: whole entry is the tagged construct
# T4 chain: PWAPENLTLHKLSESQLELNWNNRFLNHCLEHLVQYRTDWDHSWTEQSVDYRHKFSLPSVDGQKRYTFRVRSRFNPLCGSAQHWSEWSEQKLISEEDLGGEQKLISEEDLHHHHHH
# Experimental: as §1
# [11] = biological target: T4, D2 domain of human IL2Rγ extracellular …; assay: SPR Biacore 4000, mAb captured on anti-hFc, 37°C
# Experimental: as §1
binder,measurement,setting,value
B1,binding ratio (sample MFI over unstained MFI),[1],37 ratio
B2,binding ratio (sample MFI over unstained MFI),[2],1 ratio
B3,binding ratio (sample MFI over unstained MFI),[3],94 ratio
same,binding ratio (sample MFI over unstained MFI),[4],19 ratio
B4,100 nM Ag Bound,[5],8 RU
same,100 nM Ag Bound,[6],2 RU
B5,100 nM Ag Bound,[7],13 RU
same,100 nM Ag Bound,[8],2 RU
B6,binding ratio (sample MFI over unstained MFI),[9],1 ratio
B7,100 nM Ag Bound,[10],14 RU
same,100 nM Ag Bound,[11],2 RU
B8,100 nM Ag Bound,[7],18 RU
same,100 nM Ag Bound,[8],5 RU
B9,100 nM Ag Bound,[10],10 RU
same,100 nM Ag Bound,[11],2 RU
